± gives the standard deviation of the averaged measurements.
B1: library; a variant is named by its letters at N, in order (parent)
chain: AATGTTGTTGATGCAACCATAAAGTGATATTTAATAATTATTTATAATCAGCAACTTAACCACAAAACAACCATATATTGATATNTCACAAAACAACCATAANTTGATATTTTTGTGAATCGAGTATTTCAGCAAAACTACTGCAGTAAGAA

Tests used:
[1] = variants of: B1; assay: relative integration efficiency (T-LR orientation) vs wild-type transposon end (log2 (normalized fold change)); transposon end mutated: left end; higher = more efficient transposition; settings: with VchCAST RNA-guided transposition machinery (E. coli BL21(DE3) host, lacZ target)
Outline: (§1)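 A T7-driven effector plasmid encoding a CRISPR array, tniQ-cas8-cas7-cas6 and tnsA-tnsB-tnsC was co-transformed into E. coli BL21(DE3) together with a pUC57 mini-transposon donor holding barcoded pools of 1549 left-end or 1849 right-end variants. Transformants were plated with 0.1 mM IPTG at 37°C for 18 h. Illumina sequencing of PCR-amplified input plasmids and genomic integration junctions gave barcode abundances, and relative integration efficiency is their output/input fold change, normalised to reference barcodes and log-transformed.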

[2] = variants of: B1; assay: relative integration efficiency (T-RL orientation) vs wild-type transposon end (log2 (normalized fold change)); transposon end mutated: left end; higher = more efficient transposition; settings: with VchCAST RNA-guided transposition machinery (E. coli BL21(DE3) host, lacZ target)
Outline: as §1

Variant | relative integration efficiency (log2) [1] | relative integration efficiency (log2) [2]
AATGTTGTTGATGCAACCATAAAGTGATATTTAATAATTATTTATAATCAGCAACTTAACCACAAAACATGCATATATTGATATCTCACAAAACAACCATAAGTTGATATTTTTGTGAATCGAGTATTTCAGCAAAACTACTGCAGTAAGAA [CG A70T C71G] | -0.292 ± 0.66 | -0.898 ± 0.41
AATGTTGTTGATGCAACCATAAAGTGATATTTAATAATTATTTATAATCAGCAACTTAACCACAAAACATGGTTATATTGATATCTCACAAAACAACCATAAGTTGATATTTTTGTGAATCGAGTATTTCAGCAAAACTACTGCAGTAAGAA [CG A70T C71G C72G A73T] | -2.15 ± 0.26 | -2.22 ± 0.88
AATGTTGTTGATGCAACCATAAAGTGATATTTAATAATTATTTATAATCAGCAACTTAACCACAAAACAACCCTATATTGATATCTCACAAAACAACCATAAGTTGATATTTTTGTGAATCGAGTATTTCAGCAAAACTACTGCAGTAAGAA [CG A73C] | -2.78 ± 1.5 | -1.14 ± 0.6
AATGTTGTTGATGCAACCATAAAGTGATATTTAATAATTATTTATAATCAGCAACTTAACCACAAAACAACCCGATATTGATATCTCACAAAACAACCATAAGTTGATATTTTTGTGAATCGAGTATTTCAGCAAAACTACTGCAGTAAGAA [CG A73C T74G] | -2.3 ± 0.72 | -2.37 ± 0.86
AATGTTGTTGATGCAACCATAAAGTGATATTTAATAATTATTTATAATCAGCAACTTAACCACAAAACAACCCGCGATTGATATCTCACAAAACAACCATAAGTTGATATTTTTGTGAATCGAGTATTTCAGCAAAACTACTGCAGTAAGAA [CG A73C T74G A75C T76G] | -1.86 ± 0.67 | -2.23 ± 0.73
AATGTTGTTGATGCAACCATAAAGTGATATTTAATAATTATTTATAATCAGCAACTTAACCACAAAACAACCGTATATTGATATCTCACAAAACAACCATAAGTTGATATTTTTGTGAATCGAGTATTTCAGCAAAACTACTGCAGTAAGAA [CG A73G] | 0.14 ± 0.13 | 0.0329 ± 0.31
AATGTTGTTGATGCAACCATAAAGTGATATTTAATAATTATTTATAATCAGCAACTTAACCACAAAACAACCTTATATTGATATCTCACAAAACAACCATAAGTTGATATTTTTGTGAATCGAGTATTTCAGCAAAACTACTGCAGTAAGAA [CG A73T] | -0.055 ± 0.17 | -0.536 ± 0.45
AATGTTGTTGATGCAACCATAAAGTGATATTTAATAATTATTTATAATCAGCAACTTAACCACAAAACAACCTAATATTGATATCTCACAAAACAACCATAAGTTGATATTTTTGTGAATCGAGTATTTCAGCAAAACTACTGCAGTAAGAA [CG A73T T74A] | -0.734 ± 0.56 | -0.97 ± 0.4
AATGTTGTTGATGCAACCATAAAGTGATATTTAATAATTATTTATAATCAGCAACTTAACCACAAAACAACCTATAATTGATATCTCACAAAACAACCATAAGTTGATATTTTTGTGAATCGAGTATTTCAGCAAAACTACTGCAGTAAGAA [CG A73T T74A A75T T76A] | -1.64 ± 0.86 | -0.919 ± 0.62
AATGTTGTTGATGCAACCATAAAGTGATATTTAATAATTATTTATAATCAGCAACTTAACCACAAAACAACCATCTATTGATATCTCACAAAACAACCATAAGTTGATATTTTTGTGAATCGAGTATTTCAGCAAAACTACTGCAGTAAGAA [CG A75C] | 0.0557 ± 0.24 | 0.219 ± 0.63
AATGTTGTTGATGCAACCATAAAGTGATATTTAATAATTATTTATAATCAGCAACTTAACCACAAAACAACCATCGATTGATATCTCACAAAACAACCATAAGTTGATATTTTTGTGAATCGAGTATTTCAGCAAAACTACTGCAGTAAGAA [CG A75C T76G] | -2.22 ± 0.87 | -1.59 ± 0.54
AATGTTGTTGATGCAACCATAAAGTGATATTTAATAATTATTTATAATCAGCAACTTAACCACAAAACAACCATCGCGTGATATCTCACAAAACAACCATAAGTTGATATTTTTGTGAATCGAGTATTTCAGCAAAACTACTGCAGTAAGAA [CG A75C T76G A77C T78G] | -2.25 ± 1.6 | -1.8 ± 0.61
AATGTTGTTGATGCAACCATAAAGTGATATTTAATAATTATTTATAATCAGCAACTTAACCACAAAACAACCATGTATTGATATCTCACAAAACAACCATAAGTTGATATTTTTGTGAATCGAGTATTTCAGCAAAACTACTGCAGTAAGAA [CG A75G] | -0.592 ± 0.42 | -0.877 ± 0.4
AATGTTGTTGATGCAACCATAAAGTGATATTTAATAATTATTTATAATCAGCAACTTAACCACAAAACAACCATTTATTGATATCTCACAAAACAACCATAAGTTGATATTTTTGTGAATCGAGTATTTCAGCAAAACTACTGCAGTAAGAA [CG A75T] | -0.0748 ± 0.42 | -0.289 ± 0.15
AATGTTGTTGATGCAACCATAAAGTGATATTTAATAATTATTTATAATCAGCAACTTAACCACAAAACAACCATTAATTGATATCTCACAAAACAACCATAAGTTGATATTTTTGTGAATCGAGTATTTCAGCAAAACTACTGCAGTAAGAA [CG A75T T76A] | -0.104 ± 0.2 | -0.129 ± 0.13
AATGTTGTTGATGCAACCATAAAGTGATATTTAATAATTATTTATAATCAGCAACTTAACCACAAAACAACCATTATATGATATCTCACAAAACAACCATAAGTTGATATTTTTGTGAATCGAGTATTTCAGCAAAACTACTGCAGTAAGAA [CG A75T T76A A77T T78A] | -0.0527 ± 0.32 | -0.453 ± 0.37
AATGTTGTTGATGCAACCATAAAGTGATATTTAATAATTATTTATAATCAGCAACTTAACCACAAAACAACCATATCTTGATATCTCACAAAACAACCATAAGTTGATATTTTTGTGAATCGAGTATTTCAGCAAAACTACTGCAGTAAGAA [CG A77C] | 0.611 ± 0.89 | 0.337 ± 0.052
AATGTTGTTGATGCAACCATAAAGTGATATTTAATAATTATTTATAATCAGCAACTTAACCACAAAACAACCATATCGTGATATCTCACAAAACAACCATAAGTTGATATTTTTGTGAATCGAGTATTTCAGCAAAACTACTGCAGTAAGAA [CG A77C T78G] | 0.461 ± 0.32 | 0.644 ± 0.21
AATGTTGTTGATGCAACCATAAAGTGATATTTAATAATTATTTATAATCAGCAACTTAACCACAAAACAACCATATCGGTATATCTCACAAAACAACCATAAGTTGATATTTTTGTGAATCGAGTATTTCAGCAAAACTACTGCAGTAAGAA [CG A77C T78G T79G G80T] | -2.28 ± 1.1 | -1.57 ± 0.49

From the supplement of paper PMC10201428
